According to patent US7267960 (Amgen, dated 2007):

Experiments:
[1] = biological target: T1, human Necl1 expressed on transduced EL4 cells (human, UniProt Q8N126 25-398); test: flow cytometry on transduced EL4 cells
T1 construct: whole, on cells
T1 sequence (looked up): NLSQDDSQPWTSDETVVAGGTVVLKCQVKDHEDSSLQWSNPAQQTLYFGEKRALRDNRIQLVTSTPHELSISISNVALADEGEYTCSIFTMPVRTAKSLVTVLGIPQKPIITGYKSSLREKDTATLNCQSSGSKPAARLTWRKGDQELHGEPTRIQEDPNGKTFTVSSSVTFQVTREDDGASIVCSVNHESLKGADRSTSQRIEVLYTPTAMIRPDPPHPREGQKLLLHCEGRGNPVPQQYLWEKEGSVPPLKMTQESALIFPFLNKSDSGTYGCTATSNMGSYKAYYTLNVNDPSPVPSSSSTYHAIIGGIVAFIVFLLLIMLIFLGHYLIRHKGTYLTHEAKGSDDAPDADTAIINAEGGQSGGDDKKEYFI

[2] = biological target: T2, human LDCAM, full length membrane-bound, expressed on transfected or transduced cells (human, UniProt Q9BY67 39-442); test: flow cytometry on EL4 cells transduced with human LDCAM (legend of FIG. 15)
T2 construct: also called B7L-1 counter receptor; Igsf4
T2 sequence: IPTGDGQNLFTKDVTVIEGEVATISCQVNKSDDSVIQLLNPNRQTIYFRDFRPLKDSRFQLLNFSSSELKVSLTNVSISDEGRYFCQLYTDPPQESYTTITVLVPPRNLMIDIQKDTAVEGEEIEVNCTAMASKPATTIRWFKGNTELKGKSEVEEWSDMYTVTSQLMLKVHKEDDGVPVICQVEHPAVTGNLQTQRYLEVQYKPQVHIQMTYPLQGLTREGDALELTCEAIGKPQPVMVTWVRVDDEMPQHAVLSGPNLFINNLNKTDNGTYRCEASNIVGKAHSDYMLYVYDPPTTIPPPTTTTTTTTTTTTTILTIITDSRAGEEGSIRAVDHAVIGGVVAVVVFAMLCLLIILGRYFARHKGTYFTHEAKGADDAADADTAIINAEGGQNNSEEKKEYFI

B1: soluble recombinant human CRTAM-Fc (Fc fusion)
chain: SLTNHTETITVEEGQTLTLKCVTSLRKNSSLQWLTPSGFTIFLNEYPALKNSKYQLLHHSANQLSITVPNVTLQDEGVYKCLHYSDSVSTKEVKVIVLATPFKPILEASVIRKQNGEEHVVLMCSTMRSKPPPQITWLLGNSMEVSGGTLHEFETDGKKCNTTSTLIILSYGKNSTVDCIIRHRGLQGRKLVAPFRFEDLVTDEETASDALERNSLSTQDPQQPTSTVSVTEDSSTSEIDKEEKEQTTQDPDLTTEANPQYLGLARKKSG
notes: also called huCRTAM-Fc; not shown: Fc part not described
Which results are given for B1?
binding result [1]: no binding; binding result [2]: binds
